Data published in US20240052052A1 (published 2024).

Experiments:
[1] = molecular target: T1, Human CD24-mFc (human, UniProt P25063 27-59); experiment: BLI (Gatorprime)
T1 chain: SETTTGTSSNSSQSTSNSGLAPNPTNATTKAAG

[2] = molecular target: T2, human CD24 (human, UniProt P25063 27-59, heavily glycosylated, GPI-anchored (as described in the background)); experiment: FACS binding; Nalm6 cells
T2 chain: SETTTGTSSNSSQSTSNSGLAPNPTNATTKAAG

[3] = molecular target: T2, human CD24; experiment: FACS binding; DoHH2 cells
[4] = molecular target: T1, Human CD24-mFc; experiment: SPR (BIAcore)

B1: 81A1F8-VH-11/VL-11 (antibody, V domains shown)
VH: QVQLVQSGAEVKKPGASVKVSCKASGYLFTGYYMNWVRQAPGQGLEWMGEINPNTGDTNNNQKFKARVTMTVDRSISTAYMELSRLRSDDTAVYYCVRRDYGTSLDYWGQGTLVTVSS
VL: DVQITQSPSSLSASVGDRVTITCRASKSINKYLAWYQQKPGKAPKLLIHSGSTLQSGVPSRFSGSRSGTDFTLTISSLQPEDFATYYCQQHNEYPITFGQGTKLEIK
B1 was tested, and the Kd [1] was 0.0204 nM.

B2: 81A1F8-VH-31/VL-41 (antibody, V domains shown)
VH: QVQLVQSGAEVKKPGASVKVSCKASGYLFTGYYMNWVRQAPGQRLEWMGEINPNTGDTNNNQKFKARVTITVDRSASTAYMELSSLRSEDTAVYYCVRRDYGTSLDYWGQGTLVTVSS
VL: DVQITQSPSTLSASVGDRVTITCRASKSINKYLAWYQQKPGKAPKLLIHSGSTLQSGVPSRFSGSRSGTEFTLTISSLQPDDFATYYCQQHNEYPITFGQGTKLEIK
In the case of B2, the Kd [1] is reported as 21600 nM.

B3: 81A1F8-VH-21/VL-41 (antibody, V domains shown)
VH: QVQLVQSGAEVKKPGASVKVSCKASGYLFTGYYMNWVRQAPGQGLEWMGEINPNTGDTNNNQKFKARVTMTVDRSTSTAYMELSSLRSEDTAVYYCVRRDYGTSLDYWGQGTLVTVSS
VL: DVQITQSPSTLSASVGDRVTITCRASKSINKYLAWYQQKPGKAPKLLIHSGSTLQSGVPSRFSGSRSGTEFTLTISSLQPDDFATYYCQQHNEYPITFGQGTKLEIK
Work on B3 yielded a Kd [1] of 0.525 nM.

B4: 81A1F8-VH-11/VL-41 (antibody, V domains shown)
VH: QVQLVQSGAEVKKPGASVKVSCKASGYLFTGYYMNWVRQAPGQGLEWMGEINPNTGDTNNNQKFKARVTMTVDRSISTAYMELSRLRSDDTAVYYCVRRDYGTSLDYWGQGTLVTVSS
VL: DVQITQSPSTLSASVGDRVTITCRASKSINKYLAWYQQKPGKAPKLLIHSGSTLQSGVPSRFSGSRSGTEFTLTISSLQPDDFATYYCQQHNEYPITFGQGTKLEIK
B4 showed a Kd [1] of 0.619 nM.

B5: 81A1F8-VH-21/VL-11 (antibody, V domains shown)
VH: QVQLVQSGAEVKKPGASVKVSCKASGYLFTGYYMNWVRQAPGQGLEWMGEINPNTGDTNNNQKFKARVTMTVDRSTSTAYMELSSLRSEDTAVYYCVRRDYGTSLDYWGQGTLVTVSS
VL: DVQITQSPSSLSASVGDRVTITCRASKSINKYLAWYQQKPGKAPKLLIHSGSTLQSGVPSRFSGSRSGTDFTLTISSLQPEDFATYYCQQHNEYPITFGQGTKLEIK
With B5 the Kd [1] was 0.0158 nM.

B6: 81A1F8-VH-31/VL-31 (antibody, V domains shown)
VH: QVQLVQSGAEVKKPGASVKVSCKASGYLFTGYYMNWVRQAPGQRLEWMGEINPNTGDTNNNQKFKARVTITVDRSASTAYMELSSLRSEDTAVYYCVRRDYGTSLDYWGQGTLVTVSS
VL: DVQITQSPSSLSASVGDRVTITCRASKSINKYLAWYQQKPGKVPKLLIHSGSTLQSGVPSRFSGSRSGTDFTLTISSLQPEDFATYYCQQHNEYPITFGQGTKLEIK
B6 was tested, and the Kd [1] was 1.11 nM.

B7: 81A1F8-VH-31/VL-11 (antibody, V domains shown)
VH: QVQLVQSGAEVKKPGASVKVSCKASGYLFTGYYMNWVRQAPGQRLEWMGEINPNTGDTNNNQKFKARVTITVDRSASTAYMELSSLRSEDTAVYYCVRRDYGTSLDYWGQGTLVTVSS
VL: DVQITQSPSSLSASVGDRVTITCRASKSINKYLAWYQQKPGKAPKLLIHSGSTLQSGVPSRFSGSRSGTDFTLTISSLQPEDFATYYCQQHNEYPITFGQGTKLEIK
Work on B7 yielded a Kd [1] of 0.247 nM.

B8: 81A1F8-VH-21/VL-21 (antibody, V domains shown)
VH: QVQLVQSGAEVKKPGASVKVSCKASGYLFTGYYMNWVRQAPGQGLEWMGEINPNTGDTNNNQKFKARVTMTVDRSTSTAYMELSSLRSEDTAVYYCVRRDYGTSLDYWGQGTLVTVSS
VL: DVQITQSPSFLSASVGDRVTITCRASKSINKYLAWYQQKPGKAPKLLIHSGSTLQSGVPSRFSGSRSGTEFTLTISSLQPEDFATYYCQQHNEYPITFGQGTKLEIK
With B8 the Kd [1] was 0.0819 nM.

B9: 81A1F8-VH-21/VL-31 (antibody, V domains shown)
VH: QVQLVQSGAEVKKPGASVKVSCKASGYLFTGYYMNWVRQAPGQGLEWMGEINPNTGDTNNNQKFKARVTMTVDRSTSTAYMELSSLRSEDTAVYYCVRRDYGTSLDYWGQGTLVTVSS
VL: DVQITQSPSSLSASVGDRVTITCRASKSINKYLAWYQQKPGKVPKLLIHSGSTLQSGVPSRFSGSRSGTDFTLTISSLQPEDFATYYCQQHNEYPITFGQGTKLEIK
Binder B9 has a Kd [1] of 0.712 nM.

B10: 81A1F8-VH-11/VL-21 (antibody, V domains shown)
VH: QVQLVQSGAEVKKPGASVKVSCKASGYLFTGYYMNWVRQAPGQGLEWMGEINPNTGDTNNNQKFKARVTMTVDRSISTAYMELSRLRSDDTAVYYCVRRDYGTSLDYWGQGTLVTVSS
VL: DVQITQSPSFLSASVGDRVTITCRASKSINKYLAWYQQKPGKAPKLLIHSGSTLQSGVPSRFSGSRSGTEFTLTISSLQPEDFATYYCQQHNEYPITFGQGTKLEIK
For B10, the Kd [1] was 0.139 nM.

B11: 33E7E12 (antibody, V domains shown)
VH: EVKLEESGGGLVQPGGSMKLSCFVSGFTFSNSWMNWVRQSPEKGLEWVAQIQLKSDNYATRYVESVRGRFIISRDDSKSSVSLQMNNLRTEDTGIYYCSSGTDYWGQGTTLTVSS
VL: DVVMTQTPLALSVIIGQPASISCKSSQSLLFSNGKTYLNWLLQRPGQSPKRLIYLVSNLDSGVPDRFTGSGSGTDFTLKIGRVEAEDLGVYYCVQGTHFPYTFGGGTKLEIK
With B11 the EC50 [2] was 21.5 nM, the EC50 [3] was 5.08 nM and the Kd [4] was 3.08 nM.

B12: 110D4G4 (antibody, V domains shown)
VH: EVQLQQSGPGLVKPGASVKISCRASGYLFTGYYMNWVKQSPEKSLEWIGEINPNTGDPRYDQKFKAKATLTVDRSSSTAYMHLKSLTSEDSAVYFCARRDYGTSLDYWGQGTTLTVTS
VL: DVQITQSPSYLAASPGETITINCRASKSISKYLAWYQEKPGKTNKLLIYSGSTLQSGIPSRFSGSGSGSDFTLTISSLEPEDFAMYYCQQHNEYPLTFGAGTKLELK
With B12 the EC50 [2] was 24.6 nM, the EC50 [3] was 0.61 nM and the Kd [4] was 0.124 nM.

B13: 81A1F8 (antibody, V domains shown)
VH: EVQLQQSGPELVKPGASVKISCKATGYLFTGYYMNWVKQSPEKSLEWIGEINPNTGDTNNNQKFKAKATMTVDRSSSTAYMQLKRLTSEDSAVYYCVRRDYGTSLDYWGQGTTLTVSS
VL: DVQITQSPSYLAASPGETITINCRASKSINKYLAWYQEKPGKTNKLLIHSGSTLQSGIPSRFSGSRSGTDFTLTISNLEPEDFAMYYCQQHNEYPITFGAGTKLELK
With B13 the EC50 [2] was 11.4 nM, the EC50 [3] was 0.819 nM and the Kd [4] was 0.095 nM.

B14: 73H5-1G2 (antibody, V domains shown)
VH: QVQLKQSGPGLVQPSQSLSITCTVSGFSLTNYGVHWIRQSPGKGLEWLGVIWRGGSTDYNAAFMSRLSITKDNSKSQVFFQMNSLQAADTAIYYCANNYGYDCFAYWGQGTLVTVSA
VL: DVQITQSPSYLAASPGETITINCRASKSIIKYLAWYQEKPGKTNKLLIYSGSTLQSGIPSRFSGSGSGTDFTLTITSLEPEDFAMYYCQQHNEYPLTFGAGTRLELK
In the case of B14, the EC50 [2] is reported as 108 nM.

B15: 101H9G9A2 (antibody, V domains shown)
VH: QVQLLQPGAELVRPGSSVKLSCKASDYTFTSYWMDWVKQRPGQGLEWIGNIYPSDSKTHYNQKFKDKATLTVDKSSSTAYMQLNSLTSEDSAVYYCARRGGYYAYAMDYWGQGTSVTVSS
VL: DIVMTQSPSSLSVSAGEKVTMRCKSSQSLLNSGNQDNYLAWYQQKPGQPPKLLLYGARIRESGVPDRFIGSGSGTDFTLTISSVQAEDLAVYYCQNDHSYPYTFGGGTKVEIK
B15 showed an EC50 [2] of 2.55 nM, an EC50 [3] of 0.218 nM and a Kd [4] of 1.24 nM.

B16: 100F2E3 (antibody, V domains shown)
VH: QVQLQQPGAELVRPGSSVKLSCKTSDYTFTSYWMDWVKQRPGQGLEWIGNIYPSDSKTHSNQKFRDKATLTVDKSSSTAYMQLNSLTSEDSAVYYCARRGGYYGYAMDYWGQGTSVTVSS
VL: DIVMTQSPSSLSVSAGEKVTMSCKSSQSLLNSGNQDNYLAWYQQKPGQPPKLLIYGASIRESGVPDRFTGSGSGTDFTLTISSVQAEDLAVYYCQNDHSYPYTFGGGTKLEIK
For B16, the EC50 [2] was 7.84 nM.

B17: 107D10D11 (antibody, V domains shown)
VH: QIQLKQSGPGLVQPSQSLSITCTVSGFSLSSYGVNWVRQSPGKGLEWLGMIWSGGNTDYNAAFISRVSFTKDNSKSQVFFTMNSLQADDTAIYYCARIWYYGMDYWGQGTSVTVSS
VL: DIVMTQSQKFMSTTVGDRVSITCKASQNVGTAVAWFQQKPGQSPKILIYSASIRYPGVPDRFTGSGSGTDFTLTTSNVQSEDLADYFCLQYITFPRTFGGGTKLYIK
B17 showed a Kd [4] of 0.762 nM.

B18: 58F10-1F6 (antibody, V domains shown)
VH: EVQLRQSGPELVKPGAAVKISCKASGYSFTGYHMNWVKQSPEKSLEWIGEINPITSGITYNQIFKAKATLTVDKSSSTAYLQLKSLTSEDSAVYYCTRRDYGTSLDYWGQGTTLTVSS
VL: DIQMTQITSSLSASLGDRVTITCRASQDISNYLNWYQQKPDGTVKLLIYYTSRLLSGVPSRFSGSGSGTDYSLTISNLEQEDIATYFCQQDHTLPRTFGGGTKLEIR
In the case of B18, the EC50 [2] is reported as 70.6 nM.

B19: 56A7E3 (antibody, V domains shown)
VH: EVQLQQSGPELVKPGASVKIPCKASGYTFTAYNMDWVKQSHGMSLEWIGDINPINGGTIYNQNFEGKATLTVDKSSSTAYLELRSLTSEDTAVYYCARRGSYYYGSSHYALDFWGQGTSVSVSS
VL: DIQMTQITSSLSASLGDRVTITCRASQDISNYLNWYQQKPDGTVKLLIYYTSRLLSGVPSRFSGSGSGTDYSLTISNLEQEDIATYFCQQDHTLPRTFGGGTKLEIR
In the case of B19, the EC50 [2] is reported as 29.2 nM.

B20: 71A4F12 (antibody, V domains shown)
VH: EVQLQQSGPELVKPGASVKIPCKASGYTFTAYNMDWVKQSHGMSLEWIGDINPNNGDTVYNQNFKGKATLTVDKSSSTAYMELRSLTSEDTAVYYCARRGSYYYGSSHYALDFWGQGTSVSVSS
VL: DIQMTQITSSLSASLGNRVTISCRASQDIRNYLNWYQQKPDGTVKLLIYYTSRLLSGVPSRFSGSGSGTDYSLTISNLEQEDIATYFCQQDNSLPRTFGGGTRLEIR
With B20 the EC50 [2] was 24.9 nM.
